Results on three molecules are retold here after paper PMC5609712 (Molecular cell, 2017).

First the molecules themselves.
B2: Exonuclease 1, biotinylated, full length (enzyme, human, UniProt Q9UQ84 1-846, looked up)
chain: MGIQGLLQFIKEASEPIHVRKYKGQVVAVDTYCWLHKGAIACAEKLAKGEPTDRYVGFCMKFVNMLLSHGIKPILVFDGCTLPSKKEVERSRRERRQANLLKGKQLLREGKVSEARECFTRSINITHAMAHKVIKAARSQGVDCLVAPYEADAQLAYLNKAGIVQAIITEDSDLLAFGCKKVILKMDQFGNGLEIDQARLGMCRQLGDVFTEEKFRYMCILSGCDYLSSLRGIGLAKACKVLRLANNPDIVKVIKKIGHYLKMNITVPEDYINGFIRANNTFLYQLVFDPIKRKLIPLNAYEDDVDPETLSYAGQYVDDSIALQIALGNKDINTFEQIDDYNPDTAMPAHSRSHSWDDKTCQKSANVSSIWHRNYSPRPESGTVSDAPQLKENPSTVGVERVISTKGLNLPRKSSIVKRPRSAELSEDDLLSQYSLSFTKKTKKNSSEGNKSLSFSEVFVPDLVNGPTNKKSVSTPPRTRNKFATFLQRKNEESGAVVVPGTRSRFFCSSDSTDCVSNKVSIQPLDETAVTDKENNLHESEYGDQEGKRLVDTDVARNSSDDIPNNHIPGDHIPDKATVFTDEESYSFESSKFTRTISPPTLGTLRSCFSWSGGLGDFSRTPSPSPSTALQQFRRKSDSPTSLPENNMSDVSQLKSEESSDDESHPLREEACSSQSQESGEFSLQSSNASKLSQCSSKDSDSEESDCNIKLLDSQSDQTSKLRLSHFSKKDTPLRNKVPGLYKSSSADSLSTTKIKPLGPARASGLSKKPASIQKRKHHNAENKPGLQIKLNELWKNFGFKKDSEKLPPCKKPLSPVRDNIQLTPEAEEDIFNKPECGRVQRAIFQ
modifications: biotinylated (co-infected with a BirA virus)

Common to all, as to test: pull-down
The target of experiment [1] is B2.
Experiment [2] addresses Mre11-Rad50-Nbs1 complex (triple flag on Mre11) (human, UniProt P49959 1-708; Q92878 1-1312; O60934 1-754).
For experiment [3], the target named is T1, Mre11, flag-tagged, purified alone (human, UniProt P49959 1-708).
T1 sequence (looked up): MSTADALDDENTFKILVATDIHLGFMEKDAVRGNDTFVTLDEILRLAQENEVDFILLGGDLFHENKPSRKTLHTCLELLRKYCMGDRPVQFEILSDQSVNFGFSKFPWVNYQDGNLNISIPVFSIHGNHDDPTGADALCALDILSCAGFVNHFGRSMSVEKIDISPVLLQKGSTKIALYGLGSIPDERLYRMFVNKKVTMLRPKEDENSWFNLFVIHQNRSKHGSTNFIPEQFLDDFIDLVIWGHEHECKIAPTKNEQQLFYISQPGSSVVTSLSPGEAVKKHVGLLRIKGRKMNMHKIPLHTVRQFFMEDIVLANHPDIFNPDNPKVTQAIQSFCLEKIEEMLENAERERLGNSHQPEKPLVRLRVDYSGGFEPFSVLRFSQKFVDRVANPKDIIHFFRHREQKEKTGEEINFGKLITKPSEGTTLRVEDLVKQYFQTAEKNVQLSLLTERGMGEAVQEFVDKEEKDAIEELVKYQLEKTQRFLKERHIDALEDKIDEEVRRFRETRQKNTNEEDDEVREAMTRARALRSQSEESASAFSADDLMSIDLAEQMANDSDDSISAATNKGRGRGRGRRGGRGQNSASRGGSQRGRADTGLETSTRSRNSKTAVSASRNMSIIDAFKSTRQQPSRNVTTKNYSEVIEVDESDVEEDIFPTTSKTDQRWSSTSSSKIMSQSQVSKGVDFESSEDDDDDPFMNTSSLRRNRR

Mre11-Rad50-Nbs1 complex (triple flag on Mre11), sequence (Q92878 whole entry, one chain of several): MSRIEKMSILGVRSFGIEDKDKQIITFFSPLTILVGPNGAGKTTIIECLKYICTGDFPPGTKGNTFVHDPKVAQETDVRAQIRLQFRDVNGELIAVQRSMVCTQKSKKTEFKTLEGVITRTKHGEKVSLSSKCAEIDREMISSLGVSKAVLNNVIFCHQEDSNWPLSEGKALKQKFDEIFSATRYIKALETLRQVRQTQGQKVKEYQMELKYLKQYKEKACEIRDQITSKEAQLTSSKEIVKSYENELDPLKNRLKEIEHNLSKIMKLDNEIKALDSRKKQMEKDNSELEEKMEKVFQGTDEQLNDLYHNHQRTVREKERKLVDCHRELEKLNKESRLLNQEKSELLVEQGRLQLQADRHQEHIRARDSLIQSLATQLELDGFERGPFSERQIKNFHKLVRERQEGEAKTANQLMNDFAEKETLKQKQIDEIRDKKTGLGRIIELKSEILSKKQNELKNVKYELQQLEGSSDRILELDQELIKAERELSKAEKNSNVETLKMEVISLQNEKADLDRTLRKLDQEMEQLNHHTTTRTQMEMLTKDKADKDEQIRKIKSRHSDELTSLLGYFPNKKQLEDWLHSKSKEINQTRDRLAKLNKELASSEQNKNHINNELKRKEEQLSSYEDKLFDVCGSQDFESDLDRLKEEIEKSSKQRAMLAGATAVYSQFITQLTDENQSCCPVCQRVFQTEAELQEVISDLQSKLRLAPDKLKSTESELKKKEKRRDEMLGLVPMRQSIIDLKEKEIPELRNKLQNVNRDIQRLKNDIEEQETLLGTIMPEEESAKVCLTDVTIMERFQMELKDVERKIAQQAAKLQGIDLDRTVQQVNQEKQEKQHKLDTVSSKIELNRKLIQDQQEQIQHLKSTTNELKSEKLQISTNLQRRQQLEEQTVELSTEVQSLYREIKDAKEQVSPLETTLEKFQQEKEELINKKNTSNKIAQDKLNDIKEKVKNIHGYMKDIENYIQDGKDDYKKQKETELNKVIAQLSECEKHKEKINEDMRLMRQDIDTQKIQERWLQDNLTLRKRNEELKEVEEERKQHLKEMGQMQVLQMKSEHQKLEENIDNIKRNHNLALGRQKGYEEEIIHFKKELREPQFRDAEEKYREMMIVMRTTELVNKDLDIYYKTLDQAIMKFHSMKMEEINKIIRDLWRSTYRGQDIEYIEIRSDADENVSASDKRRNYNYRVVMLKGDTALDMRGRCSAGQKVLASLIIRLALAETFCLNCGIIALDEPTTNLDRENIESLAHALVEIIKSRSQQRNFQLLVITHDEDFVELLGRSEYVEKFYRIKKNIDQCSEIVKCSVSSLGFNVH

B1: Nbs1, flag-tagged, purified alone (natural protein, human, UniProt O60934 1-754, looked up)
chain: MWKLLPAAGPAGGEPYRLLTGVEYVVGRKNCAILIENDQSISRNHAVLTANFSVTNLSQTDEIPVLTLKDNSKYGTFVNEEKMQNGFSRTLKSGDGITFGVFGSKFRIEYEPLVACSSCLDVSGKTALNQAILQLGGFTVNNWTEECTHLVMVSVKVTIKTICALICGRPIVKPEYFTEFLKAVESKKQPPQIESFYPPLDEPSIGSKNVDLSGRQERKQIFKGKTFIFLNAKQHKKLSSAVVFGGGEARLITEENEEEHNFFLAPGTCVVDTGITNSQTLIPDCQKKWIQSIMDMLQRQGLRPIPEAEIGLAVIFMTTKNYCDPQGHPSTGLKTTTPGPSLSQGVSVDEKLMPSAPVNTTTYVADTESEQADTWDLSERPKEIKVSKMEQKFRMLSQDAPTVKESCKTSSNNNSMVSNTLAKMRIPNYQLSPTKLPSINKSKDRASQQQQTNSIRNYFQPSTKKRERDEENQEMSSCKSARIETSCSLLEQTQPATPSLWKNKEQHLSENEPVDTNSDNNLFTDTDLKSIVKNSASKSHAAEKLRSNKKREMDDVAIEDEVLEQLFKDTKPELEIDVKVQKQEEDVNVRKRPRMDIETNDTFSDEAVPESSKISQENEIGKKRELKEDSLWSAKEISNNDKLQDDSEMLPKKLLLTEFRSLVIKNSTSRNPSGINDDYGQLKNFKKFKKVTYPGAGKLPHIIGGSDLIAHHARKNTELEEWLRQEMEVQNQHAKEESLADDLFRYNPYLKRRR
Turning to B1, the binding result in experiment [1] is listed as “binds”.

In the case of B2, the binding result in experiment [2] was “binds”.

B3: Exo1(NTD), catalytic Exo1 core, N-terminal domain encoding amino acids 1-352, biotinylated (domain or fragment, human, UniProt Q9UQ84 1-352, looked up)
chain: MGIQGLLQFIKEASEPIHVRKYKGQVVAVDTYCWLHKGAIACAEKLAKGEPTDRYVGFCMKFVNMLLSHGIKPILVFDGCTLPSKKEVERSRRERRQANLLKGKQLLREGKVSEARECFTRSINITHAMAHKVIKAARSQGVDCLVAPYEADAQLAYLNKAGIVQAIITEDSDLLAFGCKKVILKMDQFGNGLEIDQARLGMCRQLGDVFTEEKFRYMCILSGCDYLSSLRGIGLAKACKVLRLANNPDIVKVIKKIGHYLKMNITVPEDYINGFIRANNTFLYQLVFDPIKRKLIPLNAYEDDVDPETLSYAGQYVDDSIALQIALGNKDINTFEQIDDYNPDTAMPAHSR
In the case of B3, the binding result in experiment [3] is on record as “binds”.
